Assay: soluble on expression in E. coli; label from the status in PepcDB or PDB records

Sequence | soluble on expression in E. coli
MLLAYQSVIASITYLNPNIRFQLSRRCPSLKSAEKSAPLFINKLKLCTNSVVVNDISYEVDVYKTSEAVLLTYNTDLDVFGSIDFDLEIEEQNEILLDHRTYMAERMRLEREVLGLMTHSRNPNADLSRLMEINRLNKIRIQAREDRREVPNTPPEPPLVQVIEFAVMETDNYGDCLENEQLTYDRKLHDAVKYIMEKLFCGRKTPVHLSTLSINSFGILRIPLNMRFKIRHLKLVSGHANEIASKIRPIIEDSSFPLKSIIIKDPVEFDDPIYHSTQLLVLRHQLENRSPRFLNVKVLPNQLYVTTKILNWVQQARPVGTCWEFVGIDKNSKRQCVQKLMQIPGAMRALHTKLCWIILPANDDSEIHVTVAQDKINSKQFSIKLTVY | not soluble
MTEILQTLKEYIPISLEEMSGIKLMNRTDTKYVTSYQILKEILLAAGHDYRVQEVNGEYNIAYHTIYLDTADRDMYLTHQNGRVVREKIRIRTYVDSDLTFLEVKNKNNKGRTDKKRIRIGSIDTIKEDGGEAFLRQHAWYEQSQLLPLLENSFRRITLVNKHKTERLTIDTGVTFCCLQSGKISSLDNIVIIELKRDGHNSSPIKEILRKLHIQSSGFSKYCIGSALTVSHLKCNRLKPKLRMLNKMGVYLEHHHHHH | soluble
MGSDKIHHHHHHMTKQSKTQIRICFVGDSFVNGTGDPECLGWTGRVCVNANKKGYDVTYYNLGIRRDTSSDIAKRWLQEVSLRLHKEYNSLVVFSFGLNDTTLENGKPRVSIAETIKNTREILTQAKKLYPVLMISPAPYIEQQDPGRRRRTIDLSQQLALVCQDLDVPYLDVFPLLEKPSVWLHEAKANDGVHPQAGGYTEFARIVENWDAWLNWFR | soluble
MGSDKIHHHHHHMMSGLVYRKRRRQNMTALERSWFEEAQQSMHGWDFSHLAGRWQTADLPWDYAALVREHLSADDRWLDIDTGGGELMGRFNPQPALTAVTEGWQPNIELLKQTVVKKGITLYPDAAEQLTAVPNSTFDIVTNSHGAMPVKRIAEVLKPGGRFVTQQVGATNNYALSRFFDEHYETAYPDNQLLTVMAQMQAAGFEILRAEQAYAALSFTDVGAIVYYATVIPWEFPHFDVARMLPKLHQLQSLLAINGRVTTFEDRFMIIARKLARRD | not soluble
MGSDKIHHHHHHMVKLYKEIINLIDNHQATMVEQLHQFCEINSGTTNLTGLAIMAETLCSAFKPIADTTELITLPPLSVIDMTGNTVMQSCGDVLFISKRPHLKRRILLSGHMDTVYSASNPFQKLSYLDANQINGPGVADMKGGLIVILHALAAFENTRFAEDMGWDVLINSDEEIGSPTSGSLFNKLAHRYQAALVYEPAMTPNGTLAKNRKGSGKLTLVATGRAAHAGRAFDEGRNAICYLAEAITAVHALNGQKNGVTINVGKIAGGEALNVVPDKAVAQLDIRISLPEDEIWVRNELNKIIKQLERPDYSLNVHGTFGRPVKRICAGTERLFHRIQKIGEALGLTIDWKDSGGCCDGNNLAHYGLPVLDTLGVRGGNIHSSDEYILLDSLSERAALSALLLIDLAQGGLEDLIK | not soluble
MGTIPASTYYPTHFMRGTQLNVANGNIKKVEDLSSDDFLRCAAESDDVIVNASVIKSIKSTAGSVTIIFETGIEKQLIPLKCQVEHPFFVLGKGWCSCNPRKSGENYGLDCEILQVDDVCIVLTRNEDKITDCAVDIVTAERDLELFSQRAALKEQLVDVYYERVSGRVSAPPERVLVTFSNEHRERRISE | not soluble
MKWYTKYLQVYEKPFSEAPQEIVEEVRNKLKLLQSDNPLVTVSLIGYNEEKHLLASLWSLSEMKCKYPIEIIGTDNDSKDQTATIYEATGIPYVIEHQHSCGHARLCGLKRAKGKYHINIDSDTMYPPHYVETMVDALERPGIVAVSSLWSYIPDKEHSWVGLKIYEFIRDIHLWIQSIKRPELSVRGLVFAYRTDYARQVGIRTDIRRGEDGSLALRLKEYGNIYFIRKRKARAITGYGTISADGSLFNSFKVRAIYALKNIGRVFTRKKEYKDEDDNLIKS | not soluble
MKYKILLKGKQYFATINLFDGRIAMDVQVQFMAELSQLIDKLSFLSRDQLKIALKGYKPAEVHTIEFIGEHSETNVTAIASALYVTRGAVSKITKRLISRGLIVRYQKPDNQKEVYFKLTAQGQEVFEIHKKFTNYFMQRDEPIFRDSPDAVATTLAFLHQYNAFLDQKLTIKK | not soluble
MAHHHHHHSLSQVILDLQLACENHAGLPDEAQFQRWLDGVIPQFQEEAEVTIRLVDEAESHDLNLTYRGKDKPTNVLSFPFEAPPGIEMPLLGDLIICRQVVEQEAQEQSKPLEAHWAHMVVHGSLHLLGYDHIDDDEAEEMESLETEIMLAMGYEDPYIAEKIAE | soluble
